Results reported in the RNAGym collection of RNA variant scans (doi:10.7554/elife.90254).

B1: LINE1-full (parent)
chain: UACGUAGGUGGUUUUCCCCUGAUAGUGCUAAGGGGGCCUGGAAGUUUGGACUGGGCAGAGCUCAACACAGCGUGGCAAAGUGGCUGUGGCUAGACUGCCUCUCUGGAUUCCUCGUCACUCAGCAGGGCAUCUCUGAGAGAAAUGCC

Variants of: B1
Assay: self-cleavage, relative activity (ratio to wild type); higher = more cleavage; in vitro, sequencing; the parent is a self-cleaving ribozyme

Variant	self-cleavage
U52G U102C	1.87
U39G A136G	1.65
A31G A59U	0.42
A77G U143C	2.2
U14C G58C	0.08
A136G A138G	1.6
U13C G41A	1.81
U9G A50G	0.93
U39G U52A	1.16
U104C A142G	1.81
U96A C110U	0.08
C38A U109A	1.36
U119C A142G	1.33
U104C G122A	1.54
U119A A136U	1.3
U87C U104C	0.22
G74A U100C	1.62
A22U U62C	0.13
U13C U46A	1.13
G80C U108C	0
G74A G144A	1.09
U20C G54A	0.65
A42G C146G	0.45
U29C C63U	0.48

Variant	self-cleavage
A57U A140G	0.11
A57G U96G	0
A64U G125U	0.41
A6G A141G	1.03
U46C C61U	0.04
G54A G75C	0.33
A43G A124U	1.38
U47C G126A	1.84
G72U C113U	1.15
U20C A141U	1.36
U12C U81A	1
U47G A142C	1.25
A94G C116U	0.28
U62A A67U	0.06
U9C U96C	0.14
G27A U87C	0.19
G89U A92U	0.07
C37U U104A	0.59
U46A C68U	0.07
A50G U73G	0.34
U26C G93A	0.03
G25A C76U	1.35
A2U U87A	0.08
A30U A57U	0.13

Variant	self-cleavage
G10A U73G	1.14
A50G U132C	1.07
A2U A138G	1.06
U87A A141U	0.08
A67C A138U	0.03
G36C A77G	1.6
G106A G127U	1.49
U73A U104C	1.53
C16U U62C	0.09
A22U U39A	1.17
A43G A94G	0.36
A129G A141G	1.6
G48A A94G	0.13
A57U U134A	0.1
U5C A138G	1.18
G4A A121G	1.78
U9C G97A	0.33
A121U U143G	2
A31U G126U	0.79
U52A U62C	0.04
G34U A92G	0.14
G53U A107G	1.08
G32A G55U	0.32
U62C G106A	0.08

Variant	self-cleavage
U23C A24G	1.48
U14C U108C	1.44
U12C U52A	1.41
U9A U13A	1.12
C99U A141C	0.55
U9A A42U	1.09
A78G C145U	1.28
U87C C98U	0.02
U87C C98A	0.09
A2C A65U	0.17
A50U A59U	0.67
A50G U130A	0.83
G48A U134A	0.83
U1A U100C	1.18
U87C C146U	0.34
C17A U132A	1.17
A43G U108C	1.56
A42G U109G	0.66
A42G U109A	1.43
U91A	0.58
A78G A129G	1.65
G36A U47C	0.9
U5A U85G	0.16
U109A A117U	1.51

Variant	self-cleavage
A69G U108A	0.07
A42G A129C	2.1
G41A U134A	0.89
G27C U112G	1.11
A22U G106A	1.55
G27A G88A	0.04
U9A G36U	0.71
U39A G80A	2.24
U1C U29G	1.45
U13C C51U	0.97
G8U A124U	1.47
A2U C56A	0.03
A57G U134A	0.62
A57G A121G	1.07
U23A U85A	0.08
U12G U62A	0.16
G35U C145U	1.21
C19A U91C	0.46
G35U A138G	1.47
U23C A65U	0.09
G34A A140U	1.29
U52C U85A	0.13
U45A A138G	1.32
U39A U52A	1.4

Variant	self-cleavage
A2U A142C	1.09
A59G G88A	0.06
U45A C63A	0.05
A42U A57U	0.04
A31G A78G	0.96
U15C U45A	1.49
C38U A136G	1.89
G49A U119A	1.15
U12A U13C	1.58
U29C A121C	1.93
U14A U46C	1.17
A42G U85G	0.26
A31G G125U	0.96
A57G U87G	0.14
U20A U46A	0.96
U29G U108C	0.54
U39C U108A	1.22
A124G G139U	1.91
A107U U112A	2.03
U20C G33A	0.99
C18U U109A	0.9
U26C C37U	0.77
U15A A30G	1.16
U104A U132A	1.64

Variant	self-cleavage
G55A C63U	0.13
U73A C123U	1.3
U73G A77U	1.14
A140U U143A	1.41
C17U A94G	0.31
A59G G125C	0.2
C98U C146U	0.32
A57G A65U	0.15
U85A G88A	0.23
U81A U130C	2.43
G55A C95U	0.11
C19U A78G	1.24
U13A C131U	1.15
U12C C90U	0.04
G89A A94G	0.07
G40A U81A	1.71
A64G G137A	0.21
A22G U26G	0.75
U26C C76U	1.87
A107U U115C	1.55
G32A U46C	1.19
U1A A124G	1.16
A57U A124U	0.09
